{
  "source": "paper PMC11875312",
  "about": "“Hidden Structural States of Proteins Revealed by Conformer Selection with AlphaFold-NMR” (Research Square, 2025)",
  "proteins": {"B1": {"name": "Cyclin-Dependent Kinase 2-Associated Protein 1 (residues 61-115) (domain or fragment, human, UniProt O14519 61-115, looked up)", "chain": "SKYAELLAIIEELGKEIRPTYAGSKSAMERLKRGIIHARGLVRECLAETERNARS", "notes": "Cyclin-Dependent Kinase 2-Associated Protein 1 (CDK2AP1), human, residues 61-115, the homodimeric four-helix bundle; The methods mention newly assigned H58 - K62 resonances, so the sample may carry residues (perhaps of a tag) before residue 61; also called CDK2AP1; CDK2AP1_(61–115)"}},
  "target": "the molecule itself",
  "experiment": "solution NMR structure (AlphaFold-NMR: AFsample models selected against NOESY and chemical shift data); homodimer models of CDK2AP1(61-115) scored against NOESY peak lists (including 3D X-filtered NOESY on a mixed sample of 50% [15N,13C]-labeled and 50% unlabeled CDK2AP1, recorded earlier, ref. 47; 124 further peaks picked here) and chemical shifts (BMRB 16808); validated by NOESY Double Recall",
  "data": [
    {"protein": "B1", "values": [
      {"measurement": "binding result", "result": "binds"}
    ]}
  ]
}
